# Laboratory results as given in PMC2756588.
# T1: Abp1, P15891
# T1 sequence (P15891 535-592, looked up): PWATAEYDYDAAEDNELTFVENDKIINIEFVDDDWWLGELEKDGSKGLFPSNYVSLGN
# T2: Bbc1, P47068
# T2 sequence (P47068 1-78, looked up): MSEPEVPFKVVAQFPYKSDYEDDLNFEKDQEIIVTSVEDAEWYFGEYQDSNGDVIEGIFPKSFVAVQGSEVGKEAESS
# T3: Boi1, P38041
# T3 sequence (P38041 1-86, looked up): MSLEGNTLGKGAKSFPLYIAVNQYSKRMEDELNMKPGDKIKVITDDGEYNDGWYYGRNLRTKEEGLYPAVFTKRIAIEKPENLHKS
# T4: Boi2, P39969
# T4 sequence (P39969 32-116, looked up): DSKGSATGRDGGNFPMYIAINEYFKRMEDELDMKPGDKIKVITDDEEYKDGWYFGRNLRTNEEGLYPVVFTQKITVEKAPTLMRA
# T5: Bud14, P27637
# T5 sequence (P27637 247-328, looked up): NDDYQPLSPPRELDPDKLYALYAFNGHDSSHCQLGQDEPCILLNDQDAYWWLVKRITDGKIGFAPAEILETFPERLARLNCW
# T6: Bzz1-1, P38822
# T6 sequence (P38822 478-572, looked up): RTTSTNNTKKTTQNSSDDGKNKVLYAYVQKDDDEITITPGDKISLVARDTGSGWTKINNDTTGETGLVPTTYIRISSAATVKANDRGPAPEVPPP
# T7: Bzz1-2, P38822
# T7 sequence (P38822 568-633, looked up): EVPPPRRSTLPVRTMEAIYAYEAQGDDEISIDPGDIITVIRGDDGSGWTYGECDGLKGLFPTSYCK
# T8: Cdc25, P04821
# T8 sequence (P04821 50-136, looked up): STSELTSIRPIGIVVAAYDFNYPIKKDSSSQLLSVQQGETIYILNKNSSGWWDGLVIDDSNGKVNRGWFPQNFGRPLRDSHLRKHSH
# T9: Cyk3, Q07533
# T9 sequence (Q07533 1-83, looked up): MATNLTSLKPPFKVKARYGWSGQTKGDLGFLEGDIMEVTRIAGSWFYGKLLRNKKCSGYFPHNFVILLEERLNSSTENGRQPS
# T10: Fus1, P11710
# T10 sequence (P11710 432-512, looked up): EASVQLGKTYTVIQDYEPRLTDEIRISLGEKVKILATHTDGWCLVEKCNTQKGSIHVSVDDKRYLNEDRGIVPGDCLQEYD
# T11: Hof1, Q05080
# T11 sequence (Q05080 590-669, looked up): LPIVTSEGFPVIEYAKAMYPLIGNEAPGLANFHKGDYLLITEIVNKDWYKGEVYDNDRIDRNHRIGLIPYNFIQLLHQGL
# T12: Hse1, P38753
# T12 sequence (P38753 208-285, looked up): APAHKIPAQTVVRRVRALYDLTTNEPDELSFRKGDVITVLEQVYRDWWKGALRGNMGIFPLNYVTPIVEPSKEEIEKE
# T13: Lsb1, P53281
# T13 sequence (P53281 45-122, looked up): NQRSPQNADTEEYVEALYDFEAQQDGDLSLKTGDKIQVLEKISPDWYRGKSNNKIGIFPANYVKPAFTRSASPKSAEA
# T14: Lsb3, P43603
# T14 sequence (P43603 385-451, looked up): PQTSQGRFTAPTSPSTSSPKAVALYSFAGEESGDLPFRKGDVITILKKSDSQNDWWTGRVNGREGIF
# T15: Lsb4, P32793
# T15 sequence (P32793 402-468, looked up): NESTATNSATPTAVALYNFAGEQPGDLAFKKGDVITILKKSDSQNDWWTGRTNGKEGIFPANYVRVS
# T16: Myo5, Q04439
# T16 sequence (Q04439 1072-1160, looked up): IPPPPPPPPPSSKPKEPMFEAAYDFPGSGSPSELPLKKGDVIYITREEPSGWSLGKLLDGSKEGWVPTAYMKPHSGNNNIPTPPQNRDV
# T17: Nbp2, Q12163
# T17 sequence (Q12163 103-180, looked up): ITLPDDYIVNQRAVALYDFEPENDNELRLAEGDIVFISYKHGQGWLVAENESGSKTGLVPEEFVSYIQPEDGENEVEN
# T18: Pex13, P80667
# T18 sequence (P80667 295-386, looked up): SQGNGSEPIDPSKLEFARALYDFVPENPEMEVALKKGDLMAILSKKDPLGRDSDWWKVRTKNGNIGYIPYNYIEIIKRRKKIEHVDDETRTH
# T19: Pin3, Q06449
# T19 sequence (Q06449 53-122, looked up): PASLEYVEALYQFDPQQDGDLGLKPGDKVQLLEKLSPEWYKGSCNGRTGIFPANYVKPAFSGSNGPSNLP
# T20: Sla1-2, P32790
# T20 sequence (P32790 60-140, looked up): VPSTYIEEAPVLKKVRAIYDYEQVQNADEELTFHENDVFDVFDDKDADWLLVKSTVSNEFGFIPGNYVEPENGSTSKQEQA
# T21: Sla1-3, P32790
# T21 sequence (P32790 344-424, looked up): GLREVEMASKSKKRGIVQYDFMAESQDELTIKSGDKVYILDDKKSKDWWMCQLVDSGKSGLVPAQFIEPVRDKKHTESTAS
# Legend:
# Experiment in all cases: SPOT array
# [1] = target: T1, Abp1, P15891; settings: median of control spots 935
# [2] = target: T2, Bbc1, P47068; settings: median of control spots 796
# [3] = target: Bem1-1, P29366; settings: median of control spots 4282
# [4] = target: Bem1-2, P29366; settings: median of control spots 4347
# [5] = target: T3, Boi1, P38041; settings: median of control spots 1162
# [6] = target: T4, Boi2, P39969; settings: median of control spots 1161
# [7] = target: T5, Bud14, P27637; settings: median of control spots 956
# [8] = target: T6, Bzz1-1, P38822; settings: median of control spots 4446
# [9] = target: T7, Bzz1-2, P38822; settings: median of control spots 4538
# [10] = target: T8, Cdc25, P04821; settings: median of control spots 969
# [11] = target: T9, Cyk3, Q07533; settings: median of control spots 1451
# [12] = target: T10, Fus1, P11710; settings: median of control spots 1200
# [13] = target: GST; settings: median of control spots 978
# [14] = target: T11, Hof1, Q05080; settings: median of control spots 4086
# [15] = target: T12, Hse1, P38753; settings: median of control spots 1727
# [16] = target: T13, Lsb1, P53281; settings: median of control spots 388
# [17] = target: T14, Lsb3, P43603; settings: median of control spots 406
# [18] = target: T15, Lsb4, P32793; settings: median of control spots 397
# [19] = target: Myo3, P36006; settings: median of control spots 468
# [20] = target: T16, Myo5, Q04439; settings: median of control spots 471
# [21] = target: T17, Nbp2, Q12163; settings: median of control spots 357
# [22] = target: T18, Pex13, P80667; settings: median of control spots 1341
# [23] = target: T19, Pin3, Q06449; settings: median of control spots 2171
# [24] = target: Rvs167, P39743; settings: median of control spots 2707
# [25] = target: Sho1, P40073; settings: median of control spots 1148
# [26] = target: T20, Sla1-2, P32790; settings: median of control spots 712
# [27] = target: T21, Sla1-3, P32790; settings: median of control spots 5475
# Bem1-1, P29366, sequence (P29366 55-141): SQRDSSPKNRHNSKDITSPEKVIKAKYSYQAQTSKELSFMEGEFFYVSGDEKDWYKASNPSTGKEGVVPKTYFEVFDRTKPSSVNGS
# Bem1-2, P29366, sequence (P29366 139-227): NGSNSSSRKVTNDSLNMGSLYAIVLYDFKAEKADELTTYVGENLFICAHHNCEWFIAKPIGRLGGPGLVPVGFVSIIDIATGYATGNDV
# Sho1, P40073, sequence (P40073 287-367): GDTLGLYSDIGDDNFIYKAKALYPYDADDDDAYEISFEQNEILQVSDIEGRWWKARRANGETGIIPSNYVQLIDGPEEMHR
# Rvs167, P39743, sequence (P39743 419-482): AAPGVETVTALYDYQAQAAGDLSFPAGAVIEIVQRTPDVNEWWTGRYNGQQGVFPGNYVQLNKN
SPOT intensity [1],SPOT intensity [2],SPOT intensity [3],SPOT intensity [4],SPOT intensity [5],SPOT intensity [6],SPOT intensity [7],SPOT intensity [8],SPOT intensity [9],SPOT intensity [10],SPOT intensity [11],SPOT intensity [12],SPOT intensity [13],SPOT intensity [14],SPOT intensity [15],SPOT intensity [16],SPOT intensity [17],SPOT intensity [18],SPOT intensity [19],SPOT intensity [20],Binder,other results
28,0,1,0,0,0,2,124,253,3,1,1,1,0,0,0,0,4,436,223,NPTKSPPPPPSPSTM,SPOT intensity [21]: 0; SPOT intensity [22]: 43; SPOT intensity [23]: 109; SPOT intensity [24]: 0; SPOT intensity [25]: 2; SPOT intensity [26]: 0; SPOT intensity [27]: 1
0,0,0,0,2,0,0,0,0,2,1,0,0,1,0,0,0,0,326,219,MFLISPPASPPPEFD,SPOT intensity [21]: 0; SPOT intensity [22]: 12; SPOT intensity [23]: 65; SPOT intensity [24]: 0; SPOT intensity [25]: 0; SPOT intensity [26]: 0; SPOT intensity [27]: 0
85,0,0,0,1,0,0,0,0,0,1,1,0,0,0,99,0,48,318,167,VPPPMQPPPIESSNL,SPOT intensity [21]: 6; SPOT intensity [22]: 27; SPOT intensity [23]: 114; SPOT intensity [24]: 0; SPOT intensity [25]: 0; SPOT intensity [26]: 2; SPOT intensity [27]: 0
0,0,0,89,0,0,0,0,0,2,0,0,1,51,12,0,0,0,537,559,APPLPPTAPPPPSLP,SPOT intensity [21]: 0; SPOT intensity [22]: 4; SPOT intensity [23]: 0; SPOT intensity [24]: 0; SPOT intensity [25]: 0; SPOT intensity [26]: 0; SPOT intensity [27]: 3
0,0,0,0,0,0,2,0,1,2,0,0,0,0,0,0,0,0,483,443,PPIPNAPLSPAPAVP,SPOT intensity [21]: 0; SPOT intensity [22]: 1; SPOT intensity [23]: 0; SPOT intensity [24]: 0; SPOT intensity [25]: 0; SPOT intensity [26]: 0; SPOT intensity [27]: 0
0,0,0,0,0,0,0,0,1,0,0,0,1,0,0,0,0,0,245,108,MSPLGAPPPPPHKDH,SPOT intensity [21]: 0; SPOT intensity [22]: 0; SPOT intensity [23]: 0; SPOT intensity [24]: 0; SPOT intensity [25]: 0; SPOT intensity [26]: 0; SPOT intensity [27]: 0
